Results from a protein production outcome set (Wang et al. 2014).

Assay: label from the status in PepcDB records

| Sequence | protein production |
| --- | --- |
| MDADNTAHLIYLSLLGAALVFWFISHNRASLGKTLQMALAWVFIFVGVIAVVGLWGDIRSTVAGTPRISVSENRVEIPRSPDGHYYATLIIEDKPLRFLVDTGASQVVLSHADAERLGIDTSALNYFGRAYTANGEVRTAPVKLGRVQLGGFTDQGVTAWVNEGEMSESLLGMDYLQRFRSIEIAGGTLVLAR | failed |
| MDALLGPPESSWEGADRSDADLRWARGGREARDRRDQLLPALHALNDRVGWISEGALDYVCRRLTVPPAEAYGVATFYAMFSVRPRPATVLHVCTDLACTAAGASRLCAAVESRLGPESGVKLERSPCLGLCERAPATLVIRAGESARPAQEDTPARPAFEDEAVQAEGGSGGAAPGDGGGTSRSSEAESGGGKGRRGRNTLHATAICAPATPDRAIAAATAPESAPTEPAPEAAVPQAGDPTLTLLHRIGTTDPTSLDDYRAHGGYTALRRAFALGPAAVIREVTDAGLVGRGGAAFPTGRKWQATAAQPDHPHYLVCNADESEPGTFKDRVLMEGDPYALVEAMTIAAYATGAHRGYLYLRGEYPRALARLTHAIEQARTRGLLGDDVLGQGYAFDIEIRRGAGAYICGEETALFNSIEGRRGEPRSKPPFPVEKGLFGKPTVENNVETLVNVLPILTMGAEAYAAIGTPTSTGPKLFCVSGTVARPGVYELPFGATLGELLALAGVRDNLRAVLLGGAAGGFVRPDELDIPLTFEGTREAGTTLGSGVVMAFDDTVPLPRLLLRIAEFFRDESCGQCVPCRVGTVRQEEALHRIADRTGAAAADDIALLREVGRAMRDASICGLGQTAWNAVESAIDRLGAYE | failed |
| MDALQLLTWSLILYLFASLASLFLLGLDRLAIKLSGITSLVGGVIGIISGITQLHAGVTLVARFAPPFEFADLTLRMDSLSAFMVLVISLLVVVCSLYSLTYMREYEGKGAAAMGFFMNIFIASMVALLVMDNAFWFIVLFEMMSLSSWFLVIARQDKTSINAGMLYFFIAHAGSVLIMIAFLLMGRESGSLDFASFRTLSLSPGLASAVFLLAFFGFGAKAGMMPLHSWLPRAHPAAPSHASALMSGVMVKIGIFGILKVAMDLLAQTGLPLWWGILVMAIGAISALLGVLYALAEQDIKRLLAWSTVENVGIILLAVGVAMVGLSLHDPLLTVVGLLGALFHLLNHALFKGLLFLGAGAIISRLHTHDMEKMGALAKRMPWTAAACLIGCLAISAIPPLNGFISEWYTWQSLFSLSRVEAVALQLAGPIAMVMLAVTGGLAVMCFVKMYGITFCGAPRSTHAEEAQEVPNTMIVAMLLLAALCVLIALSASWLAPKIMHIAHAFTNTPPATVASGIALVPGTFHTQVTPSLLLLLLLAMPLLPGLYWLWCRSRRAAFRRTGDAWACGYGWENAMAPSGNGVMQPLRVVFSALFRLRQQLDPTLRLNKGLAHVTARAQSTEPFWDERVIRPIVSATQRLAKEIQHLQSGDFRLYCLYVVAALVVLLIAIAV | failed |
| MDALVSTKANSIAYQRSTVIIPAYNEEKRLMPVLYELCEYIRSNSLEWKVMVSIDGDDGTESNVKIMMQEYSFLSYSKGKGRGGKGAAIKRAITSATGEFVILMDADGSVPLKEIVKALDLTNYYDLIIFDRYSNRGNRIPFIRRFPSRGFNKLVRIFLGLKINDTQCGYKIIKREYAQRAFNKITISNAFFDVALLYYLKKERAKYIEIPVEYNYDRNSKFHVVELVLGEGISLIAFRIRNSRFYKYVPEKLISLYYRKFRWILEHHHHHH | not failed |
| MDASDDSLIGRITEVRAGRFAARLLSDEEGFRNEVSLGDEVQHPGQVGTYVSIRNGTFRILALVREVSGGAAGSAAGSAMQLVPLGEFNDKGAFSRGVRRYPVPGAEVHAASPQEINAVFARTRNLRFNPGYLPNHPATGVYLDPSALCSRHFAILGQSGAGKSWTVASLLQRMLASAPRAHIILLDLHGEYCWRGADGVLHSTFPPMATRAMDARELEIPYWLMSFAELVDLLIERDDPAASIQTAFLRETVFELKRRSARELGLEGVSIDAPVYFSLQEVYERFKEANEHRTDFGKTKGPLFGQFDDFLLKLGSRLHDVRYDFLLNPARRTRSESLPDLLRDFVGLGEPRCQISVIDLSPVPFDVRPTVSAQIGRLAFEFNYWNLDRREFPILLVCEEAHTYIPRERATQYEGTRKSMERIAKEGRKYGVGLAVVSQRPHELSETVLSQCGSYICLRISNPDDQAYVRKLVPEGEADLVDVLTALGRGEALILGEATPLPVRCQIFRPDPPPNSNDVDFHKAWNADTANLDIGAIVRRWWNQGR | failed |
| MDAYSWLLAVIILLPLISASVPIAASVRWKNVGWAIAAVVVSATFAMSVALAWMVPRAEDRLLAHQLGGVEVPIGIELFADEFSVIVLLLVLAVCLGVLVFTRIGGPRGNAFYSGFLLLVGGMMGILLTGDLFNMYVFLEIMAISSYALVSASKYRWSTYAAFKYLLVGTVGAGFYLLGVALVLASTGTLTMRLLPELLAAVGYTDPVVVAAFILMAVGLAIKIALFPVHTWLADAHASAPDGISAVISALVPAVAVYAFARVLFTVYTLDFIAANPVIGNLLLVAALFSLFAGSFFALLQDHIKLVLAYSTVSQFGLIFVGIAIANETAVFGAILQIFGHGVVKASLFVLAGMFALRFGGIRTLKEYSGVAERAPIMAGAFAVLGIAMIGLPPTVGFAGKWYIALGAFEAGLWQVSLLVLGSTLLSAGYILPFINRIYFHPFEGEDVDAAKVTTGMLIAIIIGAGIGLLLGFASAEIQAAVSTAVERLVA | failed |
| MDCSESCHLKEPSKDRAFTHKPVVDEFKKSVHGAGHAPGATKDFHGGNRLEEETGQQNPSCRRCHSNTPYIKDANLERFKQELHHTETECGTCHQGETWRNQFSGHILRRLVGKNYDKMEANAMCVDCHGDHEAMAKVEIQDPETRERKKASFRFAHATDSYAKTLHGRLLAVNDESGASCIDCHAPDGFRHGILRDESKDSPTHPDRLGETCSQAGCHGYAKSPLNLGFLNTDLHDLDFLRMEDLSFALDFSRLDSAWYAAAWVLGPLGLIFLTSSLLSPLSRSRRAPVTEVVGYDHFQRVMIGGGSAKDGLWRRIRGRLVGGTPAVPVPAPLVEPGAPITSLTILFGSQTGNGEGVAADLEARLKAWGYSVELADMADYDPREIVNERLLFVIVSTHGEGQPPLPAEKLHGYLYAETAPRLEHLKFAVFALGDSSYKHFCKAGKDFDAFLQRLGASRVLDRVDADADFEEAAAAWIDAVLGCCRAIIGDTGIERPLEAEPVDHAVAKSGYGKTHPYPAAVLRNVNLNGEGSAKETRHIEIDLGDSGLSYEPGDALGVYPKNDPAYVEALLAALQADGYSEVTLGKETLSLREAFYKHLDITGLSRVLVEKYAELCDSRVLAGLLADPDPARLEGYLWGRQIIDLVEDFPIQGISPQTFVNVLRRLPPRLYSIASSMKAHPGQVHLTVGAVRYHAHGRNREGVCSTYLAGRIGPGERLAIFVQPNKHFRLPEDPETPLIMVGPGTGIAPFRGFVEEREVTGARGRNWLYFGDQRRATDYLYREEWEDKLRRGVLTRLDLAFSRDQERKVYVQTRMLENAREMYAWLEEGACFYVCGDASRMAQDVHRALLAIVMQEGGRTQEQAEEYLEAMAASRRYLRDVY | failed |
| MDDEGLPRFAGVVYDQEEGIDALVGDFVEGLLARKLRVGGLLQGREPDAEGVTRTVVRVIGKARRIVISQNLGRHSTACSIDSAAIAEAAVALRQALEERPALIVGNRFGHLELEGAGMSEEMLDILASGTPFLIPVARRFEEGWRRFTGDMGDLLDPRPAALTAWFEALAPVTALEHHHHHH | failed |
| MDDGDTADDIMDATYRALCTHGYADLTMQDIADESDKSKAALHYHYDSKHDLLCAFLEYLYDGFVDRIEDPAGETPHERLLSLIDSVLDKPDDGSEEFGTAILEIRAHAPYEPGFRERLTKFDDYLVDELEVILEDGIADGTFKSDLDADETAQFIVTVLTGAATERVTTGRPVKCTRRMLTEYVETHLLDGQQEVTA | not failed |
| MDDISVSKSNHGNVVVLNIKASSLADTSLPSNKHESSSPPLLSVHFLQKLLAELVGTYYLIFAGCAAIAVNAQHNHVVTLVGIAVVWGIVIMVLVYCLGHLSAHFNPAVTLALASSQRFPLNQVPAYITVQVIGSTLASATLRLLFDLNNDVCSKKHDVFLGSSPSGSDLQAFVMEFIITGFLMLVVCAVTTTKRTTEELEGLIIGATVTLNVIFAGEVSGASMNPARSIGPALVWGCYKGIWIYLLAPTLGAVSGALIHKMLPSIQNAEPEFSKTGSSHKRVTDLPL | failed |
| MDDVVEELLRIVVESLQYEEGNLNEAVDLAINFSTKNSIFFDQLLSLSTYCGSEGSYELAYVFAKTTANLSTGSEKAVAHHNAGTASYFLNLPMEAEEHYKLALQADPKHVNTHSNYGLLLSDMGRRDEAEQQYKLALKLDPKHVNTHYNYGILLYDMRRLDEAGEQYKLALESEPKHVKTHYNYGNLLSDMGSLDEAEEQYKLALESEPNDADIHYNYGLLLYNMESLDEAEEQYKLALESEPNDASTHSNYGILLSDMGRRDEAEEQYKLALESDPKHVNTHYNYGNLLSDMGRLDEAEEQYKLALESDPKHVKTHYNYGNLLSDMGRLDEAEEQYKLALESDPNDASIHSNYGILLSDMGRHEEAEEQYKLALETDPNDADIHYNYGNLLKRMGRLDEVEKQYILALEADPKHVNTHYNYGKLLEQMGRLDEAEKQYKIAIGIDPKMPNSHGAYGLLLFFQDLEEEAIKETEVASRLCRENGDKVKEHLSLAWLYEKFANKYYNLKDYKKSGEYAEISGDEYIEAGKQAGESFKDTSLTKGYTLKGRAKIRKLEIKTPFYKDIIKRIWNKESYEIEKFTKIINCIKDASICYEKAAKASPKDNQLCNACSISMSCLSEMLDYMFAVIKQKKTPELEDKLKNWNEKLSIAKGAYQEHSKGELFIESLYKLMGCIQNLDKYKKYGTREYGRAFEECRKELTEIANNIEGPIQKIIENVTKKMDVCRLKQLPYAGTETGYIPQPNKLSQFLKWILDPKRIGIGVFGIIITVIVNHYNEYLFSLIKRTVTMLLSKI | failed |
| MDELIKILHAQFGHASFRPGQREVVEDVLAGRDVLAMLPTGSGKSLCYQLPAYLLPGSVLVVSPLVSLMEDQVEQLRRRGEKRVIAFHSLLDAEEKWQALASLPDFRFIYASPEMLQSAKFLTALGRTRISLFVVDEAHCISQWGYDFRPDFLKLGTVRRALGSPPCLALTATAPPEVRDDIVRTLGMERACLHIYSVDRPNIALKVEYCLSAEEKAARLVEYARQLEGPGIVYFSSRQWAEEMARRLEQSGAGRVAYYHAGMDGEQRLLVQQQFLYGQLDIVCCTSAFGMGVNKENVRFVLHFHMPAQLEAYVQEIGRAGRDGAPSLAVLFYADGDRAIAQAVAEAELPDPHELREWCWRLPDNVAVEQWNAAIEASGFTEIQKRLLTYLLEWGQTAPPGRLTAEVKEQLYERMAAAIETRRRWKRKKLHEMDDWVHTSSCRRAMIVRAFGEELMDKPGDCCDCCGLRLDAYMRDTRRLAAAPIRHWREELWQMFFSRGRQDETAK | failed |
| MDEQEFRKQLTLKPVEEEHIDQFNELLSYVFQVTEADIEESGFENKRAFIKSKQPILELSKVFGWFHENQLISQIAIYPCEVNIHGALYKMGGVTGVGTYPEYANHGLMKDLIQTALEEMRQDKQWISYLFPYNIPYYRRKGWEIMSDKLSFKIRDTQLPKTVPVPGMIERLAVDHPDVFDVYARFARQNHGALIRSAFNWEEYWRFENEEERTAAVYYGANQEPLGVLFYWVADEVFHIKEMFYLNQEARNGLWNFITAHFSMVYWVKGDIYKNEPLAFLLEDSQIKESIEPYYMARIVDVKAFLENFPFESTAKPFHFVVKDPVAEWNNGIFGLIWDENDQVTITDEPLGTAVHLDIQTLTCLVMNYRRPSYLHRIERIDTDKETLNSLERIFPDQEAYFSDYF | not failed |
| MDFHIRKATNSDAEAIQHVATTSWHHTYQDLIPSDVQDDFLKRFYNVETLHNRISATPFAVLEQADKVIGFANFIELEKGKSELAAFYLLPEVTQRGLGTELLEVGMTLFHVPLPMFVNVEKGNETAIHFYKAKGFVQVEEFTEDFYGYPLETIRFNLNHHAFEEE | not failed |
